Measurements from the DeepSol protein solubility set.

assay: soluble on expression in E. coli; label from the status in PepcDB or PDB records

**Q.** For “MDLTELFAFLSIPSVSTDPARREDVRRAALWLEERLKARGFRTELHETPLHPILYAERFVDEKAPTVLVYGHYDVQPPDPLELWESPPFSPVVREGRIYARGAFDDKGQLFAHVLAAEEAPVNLKFLVEGEEEIGSPHLPPFVRANREKLRADVVLVSDGAMFAPHTPTLTYGLRGLCYLEVRLRGARRDLHSGAFGGVAPNPIQALGWLLARLKDEGTGRVLIPGFYERVRPVPEEEKALWPSLDEEALKRELGVEILPGEEGYAPLERLWARPTLDPNGIWGGYQGEGSKTVIPAEAGMKLSMRLVPDQDPEEVADQAEAYLKAVCPPGYALEVRRLHGGRPVLTDPFSPPMRLMARALEEVWGRPPVYTREGGTIPVVAELKETLGAPIVLLGLGLPDDNLHAPNEKLDLVNLEKGVEVIRRFHRLLAG”, which “soluble on expression in E. coli” value is on record?
**A.** soluble

**Q.** Which “soluble on expression in E. coli” value does the source give for “MDPLLTVLKERMRACQRRVSDRPRRQVVAIEWIDPPMASGNWIPELIALAGGENMLGTAGKHSPYIEWSTLLAIDPEVILVMPCGFDLERTRQELDQALQTYPQWQQLRALQTGQLYILDGNAYFNRPGPRLVDSLEILVEILHPCPEPKFHGVGWRPYVGPSMAKMSDEGLEHHHHHH” here?
**A.** not soluble

**Q.** With “MGGGHHEPFKIPNYSIYSNFRDFPQLAQHEKRLAQIGLKDPWIRNYVYLYDRKYPHVVGQWAHFKKLILPGWKAGVAFTAALIFVEEAYQYKTHGTTSWDGHH” as the sequence, how does the “soluble on expression in E. coli” value read?
**A.** not soluble

**Q.** For “MGSDKIHHHHHHMYLKETLDQFASIDNILKLLKKNPSFNKHCIQERLPQKTIITSNKQRKHIYIIEEGFMKLIFDDNKPRDFSYILSKGAFPFLPVYTEDIPEHTMMVALTDIVWWKIDISFFKGMMETEDPRNYLMLHQLAETRRRFYTIAYQEKLTSRESIYYSLSTMIEFGLRISEKIVELPEFLTYQILADHANTSKSYTSKVLGHLREEGILESQRKPWRINDVQKLQKLIEMNVPLVKIQKN”, which “soluble on expression in E. coli” value is on record?
**A.** not soluble

**Q.** With “MAPNASCLCVHVRSEEWDLMTFDANPYDSVKKIKEHVRSKTKVPVQDQVLLLGSKILKPRRSLSSYGIDKEKTIHLTLKVVKPSDEELPLFLVESGDEAKRHLLQVRRSSSVAQVKAMIETKTGIIPETQIVTCNGKRLEDGKMMADYGIRKGNLLFLACYCIGG” as the sequence, how does the “soluble on expression in E. coli” value read?
**A.** soluble

**Q.** For “MVTKTEEIQLNQLENQVENGGGGVWEYLCLVRKLKVRRSEIVLKHGLSILNDSGKRSALGPDEWTLYEQVAIAAMDCQSLGVAQNCIKVLKKKFPESKRVGKLEALLLEAKGMWEEAEKAYTSLLEDNPLDQVIHKRKVAMAKAQGKSSLAIEHLNKYLEVFMADHDAWRELAEIYVSLQMYKQAAFCYEELILTQPTLPLYHLAYADVLYTIGGLENLIAARKYYAATIDLTGGKSTRALLGICLCGSAIAQISKGRNKEDKDMAAPELQSLAATALEREYKQKAPAKLNLLTSALRNLKIA”, which “soluble on expression in E. coli” value is on record?
**A.** not soluble

**Q.** Which “soluble on expression in E. coli” value does the source give for “MDSDHNHINGDLAHGFENMVCVRCNDGFSMQDQMVNSSGQVWHSECFVCAQCFEPFPDGIYFEYEGRKYCEHDFHVLFSPCCGKCNEFIVGRVIKAMNASWHPGCFCCEICNKQLADVGFLRNAGRALCRECNEREKAAGHGRYVCHKCHAMIDDGQHIKFRGDSFHPYHFKCKRCNNELTTASREVNGELYCLRCHDTMGIPICGACHRPIEERVIAALGKHWHVEHFVCSVCEKPFLGHRHYERKGLPYCEQHFHKLFGNLCFKCGDPCCGEVFQALQKTWCVKCFSCSFCDKKLDQKTKFYEFDMKPTCKRCYDRFPTELKKRISESLKDRDVENQRRSMSPGPK” here?
**A.** not soluble

**Q.** For “MWRAKKPTLERRSTDGRRSSIVDWINGLSDNNNYKSDHWVEKHDEGCERMTRNGSVCAVEESEPDVPTQHREVLLTKLKIEIKNIMAEHGAKKYLNLNSPYVTSLCIAVDACIMDGLRRRLLTLFNSPSSMSLLQIIAKSNGPAQQVLDQTREIEELRTSAIPVHLIWIREALYLKSLSTIINHFIDSKSVRRYYDNSALLLDPVKGRLVATLMMAPCMVTYRRMSNRIEQEATAEELVEGATRGSTSTVPSRPPLSKIKKIHFLDNPSSYMSLQKFYDGNLSLKWVPNQLMHASSQPSSGHSNNGEFTNIWKNTINIEMQDIIYIHLHQKDEISPTCLTFVNCEGVQSAPFQLPAGQHSIAFLSSLETGLAPLLRLDPPLWVGTTKEKILPRLRKRSTAVANPAMLDYVFRLVRTSGVEPAPEDIEDPLAPTSHSPPIHDNCVSLPNSPYIVDNVDSIVNFQIGTACQSMRNQIMARAFYGWLTYVRHLRTIRTHLLHLVDTKTLICDDDCDPVDEKFWKQARAEPTEENEKEFLKRVYWRGIEGINTKEVRRMAWPYLLGLFEWNESPESRLEQFTSQYWQDIEEWRVLEAEVRRRDEEAFRAARARKAASPVREESCDVFEDPNEPTCSQHYDRENLITLFRANLHRIDKDVERCDRNLMFFSNKDNLESLRRVMYTYVRRNLEEGYTQGMCDLLAPLLVTFEDEALTLECFSLLMLRQRGKFPQRPGMSKCLLNLRSLIQVVDPQIYALISDIDYAQALSFAFRWFLLDFKRELSYECTYKVWEVIWAAQRLRITDDFAIFFGLATITNYHDVLITNNFDYTDMIKFFNEMAERHDCSRLLSSARTHVKCLQNLVQHLK”, which “soluble on expression in E. coli” value is on record?
**A.** soluble

**Q.** For “MGSDKIHHHHHHCKDDDTLLRGSGITEQSWSTNQTYFASAEQTLTFTFTTLSSWTAQNSSTALLSLDNTAGNSGENTIKVTVHKSSQEQGTITIKVNGYSSASNIKIQLSDDDVQGYEINYSVDQYLREKYLWNDDYKLLTPNFRQAYDEFLRNTLLSMTTNTLDKKRNSNGTYSLFSFIQKLDPDLQTSRSAKEKKTLEYNYGFVNFIAVGNRNNSNYGLVIQGVHKGSSADKEGLKRGMEITEIDNQRITTTNVQACYSKLIKPSSPTSIKVKDKDGKVYTINSGPIYANPIIHHQVNEKIGYLVYSAFESGFDQELFDVFKEFKSQNITELILDLRYNGGGDVTSANLISSCIAGDLCIDKTFASYRYNDERMKVLGNQRPIQKFAYSQYDNLSTSLSAGGLNLRKIYCLVTDDSASASELVINALRGIDIEVILIGTTTHGKNVGMEGVELTAGTDKYLLFPITFQAYNAKGFGDFENGFTPDYEINENKPNGEYFEGYGDFGAESDPLYAKAISLISGNEVTTPTRAVNQAKEQMLVIATPRLNRIGMIK”, which “soluble on expression in E. coli” value is on record?
**A.** not soluble

**Q.** Which “soluble on expression in E. coli” value does the source give for “TRNFEWIVGGNITRSRDKIKSLGGEEQIVLSYDNGVQMVNRVGESPYQFYGYQADGVYSTQAEADAANLSNRTGRRYNAGDVRFVDQNGDNRIDDKDRILLGSAAPSYFGGFYTQLKYKGFALSAEFSYSKDNIAYNAVRQQLEAVSTTNNQSIAAVNRWTVEGQKTDMPKATWKDPVGNSYFSSRWMEDASYLRMKNVTLSYTFSKTLWNFFRSGTIYVTGENLLTFTDYLGMDPEFSYSYAENMQGFDNAKLMQPKTVKMGVNLKF” here?
**A.** not soluble

**Q.** For “MGIDKELYKACETALKQCMGVKPGETVLVIADEPEREIGYHLWMKAKELGAEAIYVEILPRKMHGEEPPKPVAEAMKVADVVIAPTSKSITHTLAKKEACERGARVATLPGITREIFVRTMSADYEGMLELTNKIADVLDKGKEVHILTPLGTDLKFSIEGRKARRSTGIYRNPGECGNLPGAEAYIAPLEGTANGRVVIDGSMAGIGVLKEPIEIIVKDGFAEDIRGGEEAEKLREILSRYGKEARNIAEFGVGTNPKARISGNILEDEKVFGTVHIALGSNYDFGGKVKAPVHLDGIIKEPTVLIDGKYLFKDGNLVI”, which “soluble on expression in E. coli” value is on record?
**A.** soluble

**Q.** For “MSLELKVSLDNITMTAYIKSKKYLAMKQLIETHLAITVQTAMTDMFRATTGDGIHVVLHMNYDKQKGQDRKARPFRLEFNPNKLRLVDSEIIDTIIPFLEDISISRADLAFDLFEVDCSEFVLEKKGRPTATKEFRSSTGTLETKYLGAPRSEKQVRLYNKKKEQLQNGTDKDKDFASQFKHWWRLEFQLRSRSIDEIFEVIDTIIFKPFNLKGLSIETQIYLTALIHDKNIWKKLHRNTRARYKKILETHQTSDTDYLGLLKDLLKHERPRLENQLAYYGGRIDKNSFQPFCEGHHHHHH”, which “soluble on expression in E. coli” value is on record?
**A.** soluble

**Q.** For “LDRHLQPLLLELATLTRAENSGVAPKVSDERKELDRLLAEQEGNRRALTAANVAVDDMELEIRRVQEDERKLRRREAEGKRQLAAEVDEEKRRDIKHDIYAAKSRIADLMSELQEAHNEIHALRNNRDLNQQRVSDTEARIDKARAAVDALGEDTTAADRHERIETLRLELPSDVVAQFDEQRDENEVGVASFNNRSCGGCFIILPPADISIIRRAPMNVLPQCPDCGSYLVRQG”, which “soluble on expression in E. coli” value is on record?
**A.** not soluble

**Q.** With “MTDVYIAAGLRTPIGLVGKQFAKEQPEILGAKLINALQNKYPVPIDQVICGNTVGTGGNIGRLMTLYSHLGESVSALTVDMQCASAGAALSVGYAKIKAGMASNLLVGGIESSSLQPESVYASADWRQGAYKVAQFSPDSISPFAMIEGAERVAREHGFTKEYLNHWTLRSHQKASYCQEQALLADLILDLSGASDQGIRPRLSSKVLSKVPPILGEGHVISAANACLTHDAAAFLQLSSQPSAFKLIDVVEVAGDPQRSPLMVIKASQVLLEKHGLGMADMTAIEWNEAFAVIDGLFETHYPDLLDRYNIFGGALAYGHPYGASAAIIILHLMRALEIKNGRYGIAAIAAAGGQGFAVLLKYHKEFSHADKARILGKAMPK” as the sequence, how does the “soluble on expression in E. coli” value read?
**A.** not soluble

**Q.** For “MQQLLAPVHAFLRCETPQTWIDVARASASLDELLIDHCNCELKAAQTAMFLLRRYALNAESGQSLLAWAKPYEEFVYHKDRDIEQFLARDVKKNELVAVLQPNQHFSFAQDLIPPLIRLIKEEFHHFEQVLELMHARQIPYRNIRAGRYAKGMMSHVTTHEKNILRDKLIVGAYIEARSCERFAKLAPYLDAELSKFYVSLLRSEARHFEDYLKLAQLVSSEDISERVAYFGEREAELIMAPDDEFHFHSGQPQAIKYSYA”, which “soluble on expression in E. coli” value is on record?
**A.** not soluble

**Q.** With “MGKKAKLGHKTGVNKGILLTDRQRLNWLRLLRSENIGAVSFRNLIDHYKTAENALAALPELSRKGGLATSIRIATLEDAEKEMQEAEKLGIRFVGIGEPDYPTFLKVTEASPPLIAIKGNVSVFEKASVGIVGSRNASAAGKKLAAQFAHFLGNADFTIISGLARGIDSIAHQASLQTGTVAVMAGGIDHIYPPENKKLHEDIIANGGAIISEMPIGWKPRAIDFPRRNRIIAGLSLGLLVVEAALQSGSLITARQAAEMGRLTFAIPGSPLDPRSVGTNNLLKDGALLTTHPSDIIETLTPLIPTPTNHQLNFFEELPSLQLEKDCFNSSDKKTKITSFVGDERERRAVLSALSTTPIDLDTLSTNSGVSLSNLYLLLVELELAGKLIRHSGGYVSLSNFDLLQEPPHY” as the sequence, how does the “soluble on expression in E. coli” value read?
**A.** not soluble

**Q.** Which “soluble on expression in E. coli” value does the source give for “MGSDKIHHHHHHMKVTILLPAYNAALYLRDSLDSIMRQAFKDFDVLLIDDGSMDDTSKIAIEYSNIDRRIKYYKNEKNIGLIKTLNKGLSLAKGEYIVRMDADDIMFDDRLYKQVKYMDSNPECFVCGGQMEYIGGLTGMAPILPQKYEDLLYLSLINCPLYHPTTIIRNSAIKQFGLKYNDSYKHAEDYKFWSDIIFSHPNSIANIKDVVLFYRISNNQITAKYSDEQDLISKIVRRENVQHVLVPYGIKLPEVVNCEIIEKVSSLIRKEHIDAAEILTLVLCMLYMSMENSYVRIKHFILSNDYSLFVKNSSRIKLGLSVLLSGIFSNRGKRFVI” here?
**A.** not soluble

**Q.** With “GPGSMEFIMNSVYAIDPIYLLMSAVAQQMLAMAWFDCIVGQIDRYYVAADKGVRRVEHAITRYPGIMVSATTFACSLLRSLVVLTVVSMCNCSTLYQYQSAAMVAVMIGMMRVHRTFSCHRPIQIFVTETGYEMAAAMTAAVVCYYMKKYNF” as the sequence, how does the “soluble on expression in E. coli” value read?
**A.** soluble

**Q.** For “MGQTLFDKVWNRHVLYGKLGEPQLLYIDLHLIHEVTSPQAFEGLRLQNRKLRRPDLTFATLDHNVPTIDIFNIKDEIANKQITTLQKNAIDFGVHIFDMGSDEQGIVHMVGPETGLTQPGKTIVCGDSHTATHGAFGAIAFGIGTSEVEHVFATQTLWQTKPKN”, which “soluble on expression in E. coli” value is on record?
**A.** not soluble

**Q.** Which “soluble on expression in E. coli” value does the source give for “SMATKIDKEACRAAYNLVRDDGSAVIWVTFKYDGSTIVPGEQGAEYQHFIQQCTDDVRLFAFVRFTTGDAMSKRSKFALITWIGENVSGLQRAKTGTDKTLVKEVVQNFAKEFVISDRKELEEDFIKSELKKAGGANYDAQTE” here?
**A.** soluble
